Measured values from patent US10563220B2, “Compositions and methods for efficient targeting of transgenes” (priority 2015, dated 2020).

How the values were obtained:
[1] = system: R0 transgenic maize plants; assay: CTP-PPO herbicide tolerance evaluation in R0 transgenic maize (S-3100); type: in vivo
Method: R0 plants each containing a unique transformation event were sprayed with 40 g ai/ha or 80 g ai/ha of S-3100 at approximately the V5 growth stage and injury ratings were taken 4-7 days after treatment. The number of plants with ≤10% injury (highly tolerant) or ≤20% injury (tolerant) of the total number of sprayed plants was recorded. Plants that were determined to be single-copy events and that passed spray at ≤20% injury were advanced to selfing and outcrossing.

[2] = system: R1 transgenic cotton plants; assay: R1 cotton greenhouse dicamba injury; settings: dicamba 1120 g ai/ha at V4; rated 9 days after treatment; DMO SEQ ID NO:18
Text: Ten R1 seeds per event from 10 events for each construct and seed from DP393 cotton was planted to evaluate crop tolerance to post-emergence application of dicamba. Dicamba (Clarity) was applied at the V4 stage at 1120 g ai/ha. Crop injury percent ratings were taken 9 days after the treatment.

[3] = system: R1 transgenic soybean plants; assay: R1 soybean greenhouse dicamba injury; settings: dicamba 1120 g ai/ha at V4; rated 10 days after treatment; DMO SEQ ID NO:18
Text: Transgenic soybean plants were generated with two DNA constructs that were identical except for the APG6 CTP. The first DNA construct had APG6 (SEQ ID NO:1) operably linked to DMO (SEQ ID NO:18). The second DNA construct had the optimized APG6 (SEQ ID NO:2) operably linked to DMO (SEQ ID NO:18). Each DNA construct was used to transform A3555 soybean by Agrobacterium mediated transformation methods. Following transformation, R0 transgenic plants containing a single copy of the transgene were identified by PCR assay. Single-copy R0 plants were grown in greenhouse, and R1 seed was harvested. Ten R1 seeds per event for 4 events generated using each of the two DNA constructs and AG3555 seed was planted for evaluation of crop tolerance to post-emergence dicamba treatment under standard greenhouse growth conditions. Dicamba (Clarity) was applied at the V4 stage at 1120 g ai/ha. Crop injury ratings were taken 10 days after the treatment.

[4] = system: transgenic single-copy R0 soybean plants; assay: S-3100 efficacy evaluation in R0 soybean; settings: PPO H_N90; 20 g ai/ha S-3100 at about V3; 14 days after treatment
Text: Transgenic single-copy R0 plants, each representing a unique event, were sprayed in the greenhouse with the herbicide treatment 20 g ai/ha S-3100 applied at approximately the V3 stage. Injury ratings were taken 14 days after treatment as the number that were deemed highly tolerant (≤10% injury) or tolerant (≤20% injury).

[5] = system: transgenic Brassica napus plants; assay: Dicamba tolerance in R0 Brassica napus, greenhouse; settings: R0 plants with one copy with vector backbone or two copies, tolerant = injury 20% or less, 21 days
Method: Brassica napus variety 65037 Restorer line was used for Agrobacterium-mediated transformation and R0 plants were grown in the greenhouse.
Dicamba tolerance was assessed using R0 plants with one copy of transgene with vector backbone or two copies of transgene. Dicamba tolerance was designated as dicamba injury of 20% or less under greenhouse conditions.
Dicamba tolerance was assessed on R0 plants with a one copy of the transgene. Plants were sprayed in the greenhouse with dicamba (Clarity) at 1 lb ae/acre (2× rate), and dicamba tolerance was determined 14 to 21 days later.

[6] = system: knockout E. coli strain; type: cell-based; settings: LB medium, acifluorfen 1 mM, flumioxazin 0.5 mM, lactofen 0.5 mM, fomesafen 1 mM, S-3100 100 μM
[7] = construct configuration 17, PPO H_N40, S-3100 80 g ai/ha
[8] = construct configuration 17, PPO H_N90, S-3100 40 g ai/ha
[9] = construct configuration 18, PPO H_N40, S-3100 80 g ai/ha
[10] = construct configuration 19, PPO H_N40, S-3100 80 g ai/ha

B1: APG6: Arabidopsis thaliana albino and pale green (APG6) chloroplast transit peptide, SEQ ID NO:1, tested linked to DMO or PPO (protein, listed as Arabidopsis thalinana)
chain: MATATTTATAAFSGVVSVGTETRRIYSFSHLQPSAAFPAKPSSFKSLKLKQSARLTRRLDHRPFVVRC
With B1 the “≤10% injury (percent of plants)” value [1, 7] was “(37.5%)”, the “≤10% injury (plants of total sprayed)” value [1, 7] was 42/112 and the “≤20% injury (percent of plants)” value [1, 7] was “(58%)”. The “≤20% injury (plants of total sprayed)” value [1, 7] was 65/112, the “≤10% injury (percent of plants)” value [1, 8] was “(49.1%)” and the “≤10% injury (plants of total sprayed)” value [1, 8] was 55/112. The “≤20% injury (percent of plants)” value [1, 8] was 56.3%), the “≤20% injury (plants of total sprayed)” value [1, 8] was 63/112 and the “≤10% injury (percent of plants)” value [1, 9] was “(40.2%)”. The “≤10% injury (plants of total sprayed)” value [1, 9] was 45/112, the “≤20% injury (percent of plants)” value [1, 9] was “(58.9%)” and the “≤20% injury (plants of total sprayed)” value [1, 9] was 66/112. The “≤10% injury (percent of plants)” value [1, 10] was “(21.4%)”, the “≤10% injury (plants of total sprayed)” value [1, 10] was 12/56 and the “≤20% injury (percent of plants)” value [1, 10] was “(41.1%)”. For the same molecule, the “≤20% injury (plants of total sprayed)” value [1, 10] was 23/56, the “dicamba % Injury, V4 stage” value [2] was 2.6% and the “Dicamba Injury, V4 stage” value [3] was 3.6%. For the same molecule, the “≤10% injury (events of total, highly tolerant)” value [4] was 3/14, the “≤10% injury (percent of unique events)” value [4] was 21.4% and the “≤20% injury (events of total, tolerant)” value [4] was 8/14. The “≤20% injury (percent of unique events)” value [4] was 57.1%, the “2X Tolerant events” value ([5]; dicamba 1 lb ae/acre) was 7/14 and the “4X Tolerant events” value ([5]; dicamba 2 lb ae/acre) was 6/18.

B2: WH_PPO: protoporphyrinogen oxidase from Amaranthus tuberculatus (waterhemp), SEQ ID NO:60 (protein, listed as Amaranthus tuberculatus)
chain: MGNISEREEPTSAKRVAVVGAGVSGLAAAYKLKSHGLSVTLFEADSRAGGKLKTVKKDGFIWDEGANTMTESEAEVSSLIDDLGLREKQQLPISQNKRYIARDGLPVLLPSNPAALLTSNILSAKSKLQIMLEPFLWRKHNATELSDEHVQESVGEFFERHFGKEFVDYVIDPFVAGTCGGDPQSLSMHHTFPEVWNIEKRFGSVFAGLIQSTLLSKKEKGGENASIKKPRVRGSFSFQGGMQTLVDTMCKQLGEDELKLQCEVLSLSYNQKGIPSLGNWSVSSMSNNTSEDQSYDAVVVTAPIRNVKEMKIMKFGNPFSLDFIPEVTYVPLSVMITAFKKDKVKRPLEGFGVLIPSKEQHNGLKTLGTLFSSMMFPDRAPSDMCLFTTFVGGSRNRKLANASTDELKQIVSSDLQQLLGTEDEPSFVNHLFWSNAFPLYGHNYDSVLRAIDKMEKDLPGFFYAGNHKGGLSVGKAMASGCKAAELVISYLDSHIYVKMDEKTA
In the case of B2, the “growth of knockout E. coli strain expressing the PPO in the presence of a PPO herbicide” value [6] is reported as “sensitive”.
